# Data from article PMC7317872.
# Legend:
# [1] = target: Cdh23 EC1-2 (WT) (mouse) (UniProt Q99PF4); test: SAXS; proteins at 10 mg·mL^-1 in solution, SAXSpace instrument; 10 °C (methods)
# [2] = target: Cdh23 EC1-2 (WT) (mouse) (UniProt Q99PF4); test: SEC; analytical SEC, Superdex 200 increase 10/300, 100 μM injected, 25 mM HEPES, 25 mM KCl, 50 mM NaCl, 2 mM CaCl2, pH 7.5; 4 °C
# [3] = target: Cdh23 EC1-2 (WT) (mouse) (UniProt Q99PF4); test: AUC; sedimentation velocity, 142 000 g, 20 °C, pH 7.6, 25 mM HEPES, 50 mM NaCl, 25 mM KCl, 2 mM CaCl2; EC1-2 WT at 36 μM, EC1-2 E78K at 30 μM or ~440 μM, EC1 at 45 μM
# [4] = target: Cdh23 EC1-2 (WT) (mouse) (UniProt Q99PF4); test: AUC; sedimentation equilibrium at three rotor speeds, 20 °C, pH 7.6, 25 mM HEPES, 50 mM NaCl, 25 mM KCl, 2 mM CaCl2; global fit to monomer-dimer equilibrium (SEDPHAT); dimer to monomers
# [5] = target: Cdh23 EC1-2 (WT) (mouse) (UniProt Q99PF4); test: single-molecule force spectroscopy (AFM); protein anchored by its C terminus to cantilever and to coverslip (sortagging, PEG 5 kDa spacers); seven loading rates, contact time 500 ms; Bell-Evans fit
# [6] = target: Cdh23 EC1-3 (mouse); test: SEC; analytical SEC, Superdex 200 increase 10/300, 100 μM injected, 25 mM HEPES, 25 mM KCl, 50 mM NaCl, 2 mM CaCl2, pH 7.5; 4 °C
# [7] = target: Cdh23 EC1 (WT) (mouse) (UniProt Q99PF4); test: AUC; sedimentation velocity, 142 000 g, 20 °C, pH 7.6, 25 mM HEPES, 50 mM NaCl, 25 mM KCl, 2 mM CaCl2; EC1-2 WT at 36 μM, EC1-2 E78K at 30 μM or ~440 μM, EC1 at 45 μM
# [8] = target: Cdh23 EC1 (WT) (mouse) (UniProt Q99PF4); test: AUC; sedimentation equilibrium at three rotor speeds, 20 °C, pH 7.6, 25 mM HEPES, 50 mM NaCl, 25 mM KCl, 2 mM CaCl2; global fit to monomer-dimer equilibrium (SEDPHAT); dimer to monomers
# [9] = target: Cdh23 EC1 (WT) (mouse) (UniProt Q99PF4); test: single-molecule force spectroscopy (AFM); protein anchored by its C terminus to cantilever and to coverslip (sortagging, PEG 5 kDa spacers); seven loading rates, contact time 500 ms; Bell-Evans fit
substance,measurement,setting,value
Cdh23 EC1-2 (WT) (from UniProt Q99PF4 24-228) (domain or fragment),stoichiometry N,[1],2
same,stoichiometry N,[2],2
same,stoichiometry N,[3],2
same,Kd,[4],18 µM
same,"intrinsic lifetime at zero force (τ0), high-force distribution",[5],1220 s
same,"intrinsic lifetime at zero force (τ0), low-force distribution",[5],1.86 s
same,probability of events,[5],6%
Cdh23 EC1-3 (domain or fragment),stoichiometry N,[6],2
Cdh23 EC1 (WT) (from UniProt Q99PF4 24-124) (domain or fragment),stoichiometry N,[7],2
same,Kd,[8],52 µM
same,probability of events,[9],10%
